pKd: −log10 of the molar value.

In paper PMC5646243 one finds Kd data, which are given here for one substance.

For this data set, the system named is TbRpf2 (Trypanosoma brucei (427?)). Description: filter binding. To be noted: no Rrs1; 1 mM EDTA; error presumably SEM, 3 replicates; 10 mM Tris pH 7.4, 1 mM EDTA, 100 mM NaCl, 100 ug/ml BSA, 30 min, room temperature; RNA <0.5 nM, protein 0-250 nM.

As a reminder, the pKd is the negative decadic logarithm of the Kd, by convention in mol/L. Turning to T. brucei 5S rRNA, the pKd was 7.59.
